The target of this assay is Flag::Hth (Homothorax, Flag-tagged) (Drosophila) (UniProt O46339). The assay is described as follows: co-IP; SF9 extracts with Flag::Hth, His::Exd and HA::Abd-B (wild type or W>A) mixed and incubated on anti-Flag resin; lysis solution 140 mM KCl, 5% glycerol, 2.5% MgCl2, 25 mM Hepes pH 7.8, 10 mM imidazole; Western blot by the tags.

Among the data in PMC11759358 are percent reduction of co-precipitated protein against wild-type Abd-B values, retold here.

Chain of UniProt O46339 (O46339 whole entry): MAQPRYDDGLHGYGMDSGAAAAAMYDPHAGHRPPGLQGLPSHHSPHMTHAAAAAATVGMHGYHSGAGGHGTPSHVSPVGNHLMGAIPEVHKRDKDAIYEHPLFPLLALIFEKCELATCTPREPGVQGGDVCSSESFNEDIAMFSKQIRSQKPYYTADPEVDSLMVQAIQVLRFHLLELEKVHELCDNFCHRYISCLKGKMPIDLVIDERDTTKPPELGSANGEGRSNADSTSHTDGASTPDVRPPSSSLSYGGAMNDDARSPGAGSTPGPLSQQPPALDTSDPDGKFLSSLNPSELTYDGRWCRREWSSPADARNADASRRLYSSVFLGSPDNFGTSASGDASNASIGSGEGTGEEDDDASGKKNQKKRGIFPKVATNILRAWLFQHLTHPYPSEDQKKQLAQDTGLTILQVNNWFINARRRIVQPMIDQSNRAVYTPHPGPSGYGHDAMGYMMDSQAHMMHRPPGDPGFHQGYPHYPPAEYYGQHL

Regarding “HA::Abd-B^W (Abdominal-B with the Tryptophan of the HX-like motif mutated to Alanine, HA-tagged) (from UniProt P09087 1-493)”, the percent reduction of co-precipitated protein against wild-type Abd-B is 24%.
